The source of these data is publication PMC5437232, “Structure of human promyeloperoxidase (proMPO) and the role of the propeptide in processing and maturation” (The Journal of Biological Chemistry, 2017).

The data set deals with the molecule itself. The data set can be described thus: SAXS; proteins in solution, 50 mM PBS, pH 7.4; concentrated to 1 mg/liter; 20 °C; SIBYLS beam line 12.3.1; Guinier plots and pair-density distributions compared with the crystal structures.

B1: dimeric mature leukocyte myeloperoxidase (complex)
light: not shown
heavy: TGVNCETSCVQQPPCFPLKIPPNDPRIKNQADCIPFFRSCPACPGSNITIRNQINALTSFVDASMVYGSEEPLARNLRNMSNQLGLLAVNQRFQDNGRALLPFDNLHDDPCLLTNRSARIPCFLAGDTRSSEMPELTSMHTLLLREHNRLATELKSLNPRWDGERLYQEARKIVGAMVQIITYRDYLPLVLGPTAMRKYLPTYRSYNDSVDPRIANVFTNAFRYGHTLIQPFMFRLDNRYQPMEPNPRVPLSRVFFASWRVVLEGGIDPILRGLMATPAKLNRQNQIAVDEIRERLFEQVMRIGLDLPALNMQRSRDHGLPGYNAWRRFCGLPQPETVGQLGTVLRNLKLARKLMEQYGTPNNIDIWMGGVSEPLKRKGRVGPLLACIIGTQFRKLRDGDRFWWENEGVFSMQQRQALAQISLPRIICDNTGITTVSKNNIFMSNSYPRDFVNCSTLPALNLASWREAS
modifications: heme covalently bound | glycosylated; heme covalently bound; interchain disulfide Cys-319-Cys-319 between the two H-chains
notes: Myeloperoxidase, human, 14.5-kDa light polypeptide (L-chain) of mature MPO; three N termini found by mass spectrometry: Gly-164, Val-165 and Thr-166; ends before the excised peptide that begins at Ala-273; numbers on the 745-aa primary translation product; Myeloperoxidase, human, 59-kDa heavy polypeptide (H-chain) of mature MPO; three N termini found by mass spectrometry: Thr-277, Gly-278 and …
As a reminder, the stoichiometry N is the number of molecules, sites or subunits per partner or assembly. With B1, the “stoichiometry N” value was found to be 2.
